Assay results from paper PMC5636754, “Structural and biochemical characterization of DAXX-ATRX interaction” (Protein & Cell, 2017).

B1: DAXX helical bundle (DHB) domain of death domain-associated protein (DAXX), aa 55-144 (domain or fragment, UniProt Q9UER7 55-144, looked up)
chain: GKKCYKLENEKLFEEFLELCKMQTADHPEVVPFLYNRQQRAHSLFLASAEFCNILSRVLSRARSRPAKLYVYINELCTVLKAHSAKKKLN
notes: Death domain-associated protein (DAXX), DHB domain, residues 55-144; they may stand in the supplementary file; also called DHB_(DAXX); DBH_(DAXX)

What was measured:
[1] = target: B1; test: ITC; DHB_(DAXX) titrated with ATRX fragments or peptides; conditions: both partners purified
[2] = target: T1, DAXX helical bundle (DHB) domain of death domain-associated protein (DAXX), aa 55-144 (UniProt Q9UER7 55-144); test: ITC
T1 chain: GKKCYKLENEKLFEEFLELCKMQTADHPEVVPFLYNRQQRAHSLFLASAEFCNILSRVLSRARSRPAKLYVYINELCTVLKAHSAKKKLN

[3] = target: T2, DAXX interaction domain of ATRX (DID_(ATRX)), aa 1,189-1,326 (human, UniProt P46100 1189-1326); test: ITC; DHB_(DAXX) titrated with ATRX fragments or peptides; conditions: both partners purified
T2 construct: also called full length DID_(ATRX); ATRX_(1,189–1,326)
T2 sequence (looked up): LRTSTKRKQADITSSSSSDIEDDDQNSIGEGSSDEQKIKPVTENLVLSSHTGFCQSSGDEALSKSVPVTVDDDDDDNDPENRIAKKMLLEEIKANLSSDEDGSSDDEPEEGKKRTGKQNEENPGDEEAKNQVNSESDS

Binder	Kd [1]	Kd [2]	binding result [1]	Kd [3]
SSGDEALSKSVPVTVDDDDDDNDPENRIAKKMLLEEIKANLS (domain or fragment, human, UniProt P46100 1244-1285, looked up, source: co-expressed with DHB_(DAXX) and purified for the crystal) [ATRX_(1,244–1,285), 42-residue loop-helix segment of DID_(ATRX)]	0.07 µM			
NDPENRIAKKMLLEEIKANLS (peptide, UniProt P46100 1265-1285, looked up, the wild type is called 'wild type peptide control'; also called WT) [ATRX_(1,265–1,285), α-helix frame only (αDID), wild type peptide]	1 µM			
NNPENRIAKKMLLEEIKANLS (peptide, UniProt P46100 1265-1285, looked up, source: synthetic peptide) [ATRX_(1,265–1,285) D1266N mutant peptide]		7 µM	binds	
NDPENRIAKKMLLEQIKANLS (peptide, UniProt P46100 1265-1285, looked up, source: synthetic peptide) [ATRX_(1,265–1,285) E1279Q mutant peptide]		3.2 µM	binds	
NDPENRIAAKMLLEEIKANLS (peptide, UniProt P46100 1265-1285, looked up, source: synthetic peptide) [ATRX_(1,265–1,285) K1273A mutant peptide]		2.3 µM	binds	
NDPQNRIAKKMLLEEIKANLS (peptide, UniProt P46100 1265-1285, looked up, source: synthetic peptide) [ATRX_(1,265–1,285) E1268Q mutant peptide]		5.6 µM	binds	
NDPENRIAKKMLAEEIKANLS (peptide, UniProt P46100 1265-1285, looked up, source: synthetic peptide) [ATRX_(1,265–1,285) L1277A mutant peptide]	80.6 µM			
NDPENRIAKKMLLEEAKANLS (peptide, UniProt P46100 1265-1285, looked up, source: synthetic peptide) [ATRX_(1,265–1,285) I1280A mutant peptide]	10.9 µM			
B1				4.5 µM
DDDDDDNDPENRIAKKMLLEEIKANLS (peptide, UniProt P46100 1259-1285, looked up, begins with the polyD loop 1259-DDDDDD-1264) [ATRX_(1,259–1,285), minimum ATRX motif of 27 residues]	0.07 µM			
